For the assay, the target named is murine MBP::ob fusion protein (+Gln), construct pCZR90 (mouse).

From US5827734 come the findings set out here.

On to “Bovine Factor Xa (from UniProt P00743) (enzyme)”, for which the Factor Xa cleavage of the MBP::ob fusion protein was found to be 9%.
